Source: patent US20210395344A1 (TWIST BIOSCIENCE, published 2021)
Like-named read-outs stand apart in the source and are kept apart here.

Key:
[1] = target: T1, SARS-CoV-2 Spike Glycoprotein S1 (subunit 1) (SARS-CoV-2, UniProt P0DTC2 16-685); assay: screening phage ELISA, mean
T1 construct: also called S1 Monomer; SARS-CoV-2 S1

[2] = target: T1, SARS-CoV-2 Spike Glycoprotein S1 …; assay: screening phage ELISA, mean; remark: listed apart in the source
[3] = target: T1, SARS-CoV-2 Spike Glycoprotein S1 …; assay: column DC/S1 (format not explained)
[4] = target: T1, SARS-CoV-2 Spike Glycoprotein S1 …; assay: column Inhibitor IC50 (assay not explained)
S1-Fc [5] = target: T2, S1-Fc (SARS-CoV-2, UniProt P0DTC2 16-685); assay: phage ELISA
[6] = target: T3, COVID S1 RBM Fc fusion (Antigen 2) (SARS-CoV-2, UniProt P0DTC2 437-508); assay: phage ELISA
T3 construct: domain: RBM

S1-Fc [7] = target: T2, S1-Fc; assay: phage ELISA; remark: listed apart in the source
[8] = target: T3, COVID S1 RBM Fc fusion (Antigen 2); assay: phage ELISA; remark: listed apart in the source
[9] = target: T4, SARS-CoV-2 S1 (antigen of the Carterra SPR kinetics) (SARS-CoV-2, UniProt P0DTC2 16-685); assay: Carterra SPR
[10] = target: T4, SARS-CoV-2 S1 (antigen of the Carterra …); assay: Carterra SPR; remark: listed apart in the source
[11] = target: T1, SARS-CoV-2 Spike Glycoprotein S1 …; assay: ELISA binding titration

| Binder | ELISA (Avg) [1] | ELISA (Avg) [2] | IC50 [4] [nM] | EC50 [11] [nM] | other results |
| --- | --- | --- | --- | --- | --- |
| 1-30 (antibody, V domains shown) VH: EVQLLESGGGLVQPGGSLRLSCAASGFTFSSYAMTWVRQAPGKGLEWVSAISGSGGSTFYADSVKGRFTISRDNSKNTLYLQMNSLRAEDTAVYYCTRPPYGDYGDYWGQGTLVTVSS VL: QSALTQPASVSGSPGQSITISCTGTSRDVGSYNLVSWYQQHPGKAPKLMIYEGTKRPSGVSNRFSGSKSGNTASLTISGLQAEDEADYYCCSYAGSRTPVVFGGGTKLTVL | 29.5 | 29.5 | 25.3 | – | Kd [3]: 4.7 nM |
| 1-32 (antibody, V domains shown, also called variant 1-32) VH: EVQLLESGGGLVQPGGSLRLSCAASGFTFSSYAMYWVRQAPGKGLEWVSAISGSGGSTFYADSVKGRFTISRDNSKNTLYLQMNSLRAEDTAVYYCTRPPYGDYGDYWGQGTLVTVSS VL: QSALTQPASVSGSPGQSITISCTGTSSDVGGYNLVSWYQQHPGKAPKLMIYEGNKRPSGVSNRFSGSKSGNTASLTISGLQAEDEADYYCCSYAGSSTFPVVFGGGTKLTVL | – | – | – | – | ELISA fold over background (S1-Fc [5]): 4 fold over background; ELISA fold over background [6]: 1.1 fold over background; ELISA fold over background (S1-Fc [7]): 4 fold over background; ELISA fold over background [8]: 1.1 fold over background; koff [9]: 0.317 s⁻¹; kon [9]: 5.49e+06 M⁻¹ s⁻¹; Kd [10]: 57.8 nM; koff [10]: 0.317 s⁻¹; kon [10]: 5.49e+06 M⁻¹ s⁻¹ |
| 1-10 (antibody, V domains shown) VH: EVQLLESGGGLVQPGGSLRLSCAASGFTFSSYDMSWVRQAPGKGLEWVSVISGSGGSTYYADSVKGRFTISRDNSKNTLYLQMNSLRAEDTAVYYCAKGPLVGWYFDLWGQGTLVTVSS VL: QSALTQPASVSGSPGQSITISCTGTSSNVGSYNLVSWYQQHPGKAPKLMIYEGTKRPSGVSNRFSGSKSGNTASLTISGLQAEDEADYYCCSYAGSSSFVVFGGGTKLTVL | 16.9 | 16.9 | 17.7 | – | – |
| 1-26 (antibody, V domains shown) VH: EVQLLESGGGLVQPGGSLRLSCAASGFTFSSYAISWVRQAPGKGLEWVSAISGSGYSTYYADSVKGRFTISRDNSKNTLYLQMNSLRAEDTAVYYCARGAPDSSGYYFQGEVYFDYWGQGTLVTVSS VL: QSALTQPASVSGSPGQSITISCTGTSSDVGGYNLVSWYQQHPGKAPKLMIYEGTKRPSGVSNRFSGSKSGNTASLTISGLQAEDEADYYCCSFVRSSAHVVFGGGTKLTVL | 19.5 | 19.5 | 8 | 48.5 | – |
| 1-5 (antibody, V domains shown) VH: EVQLLESGGGLVQPGGSLRLSCAASGFTFSSQAMSWVRQAPGKGLEWVSAISGSGGGTYYADSVKGRFTISRDNSKNTLYLQMNSLRAEDTAVYYCAKDRRFGEFDPWGQGTLVTVSS VL: QSALTQPASVSGSPGQSITISCTGTSSGVGSYNLVSWYQQHPGKAPKLMIYEASKRPSGVSNRFSGSKSGNTASLTISGLQAEDEADYYCCSYAGSYTFAVFGGGTKLTVL | 20.6 | 20.6 | – | 7.83 | – |
| 1-7 (antibody, V domains shown) VH: EVQLLESGGGLVQPGGSLRLSCAASGFTFSSYDMSWVRQAPGKGLEWVSVISGSGGSTYYADSVKGRFTISRDNSKNTLYLQMNSLRAEDTAVYYCAKGPLVGWYFDLWGQGTLVTVSS VL: QSALTQPASVSGSPGQSITISCTGTSSDFGSYNLVSWYQQHPGKAPKLMIYEGNKRPSGVSNRFSGSKSGNTASLTISGLQAEDEADYYCCSYAGSSTFVVFGGGTKLTVL | 22.5 | 22.5 | – | 95.7 | – |
| 1-9 (antibody, V domains shown) VH: EVQLLESGGGLVQPGGSLRLSCAASGFTFSSYDMSWVRQAPGKGLEWVSVISGSGGSTYYADSVKGRFTISRDNSKNTLYLQMNSLRAEDTAVYYCAKGPLVGWYFDLWGQGTLVTVSS VL: QSALTQPASVSGSPGQSITISCTGTSSDVGDYNLVSWYQQHPGKAPKLMIYEGSNRPSGVSNRFSGSKSGNTASLTISGLQAEDEADYYCCSYAGSSSFVVFGGGTKLTVL | 18.5 | 18.5 | 282 | – | – |
| 1-28 (antibody, V domains shown, also called variant 1-28) VH: EVQLLESGGGLVQPGGSLRLSCAASGFTFSSYGMSWVRQAPGKGLEWVSAISGSGGGTYYADSVKGRFTISRDNSKNTLYLQMNSLRAEDTAVYYCASSSSWQFDYWGQGTLVTVSS VL: QSALTQPASVSGSPGQSITISCTGTSSGVGSYNLVSWYQQHPGKAPKLMIYEGSQRPSGVSNRFSGSKSGNTASLTISGLQAEDEADYYCCSYAGSSTHYVFGGGTKLTVL | – | – | – | – | ELISA fold over background (S1-Fc [5]): 1.1 fold over background; ELISA fold over background [6]: 1.2 fold over background; ELISA fold over background (S1-Fc [7]): 1.1 fold over background; ELISA fold over background [8]: 1.2 fold over background; koff [9]: 9.05 s⁻¹; kon [9]: 1.23e+08 M⁻¹ s⁻¹; Kd [10]: 73.5 nM; koff [10]: 9.05 s⁻¹; kon [10]: 1.23e+08 M⁻¹ s⁻¹ |
| 1-3 (antibody, V domains shown) VH: EVQLLESGGGLVQPGGSLRLSCAASGFTFSSQAMSWVRQAPGKGLEWVSAISGSGGGTYYADSVKGRFTISRDNSKNTLYLQMNSLRAEDTAVYYCAKDRRFGEFDPWGQGTLVTVSS VL: QSALTQPASVSGSPGQSITISCTGISSDVGSYNLVSWYQQHPGKAPKLMIYEGTKRPSGVSNRFSGSKSGNTASLTISGLQAEDEADYYCCSYAGSSSFVVFGGGTKLTVL | 23.9 | 23.9 | 15.7 | 0.133 | Kd [3]: 253 nM |
| 1-21 (antibody, V domains shown) VH: EVQLLESGGGLVQPGGSLRLSCAASGFTFSSYTMSWVRQAPGKGLEWVSIISGSGGSTYYADSVKGRFTISRDNSKNTLYLQMNSLRAEDTAVYYCAREGYRDYLWYFDLWGQGTLVTVSS VL: QSALTQPASVSGSPGQSITISCTGTSSDVGSNNLVSWYQQHPGKAPKLMIYEGNKRPSGVSNRFSGSKSGNTASLTISGLQAEDEADYYCCSYAGSVVFGGGTKLTVL | 47.6 | 47.6 | 6.7 | – | – |
| 1-24 (antibody, V domains shown) VH: EVQLLESGGGLVQPGGSLRLSCAASGFTFSSYAMNWVRQAPGKGLEWVSIISGSGGSTYYADSVKGRFTISRDNSKNTLYLQMNSLRAEDTAVYYCAREGYRDYLWYFDLWGQGTLVTVSS VL: QSALTQPASVSGSPGQSITISCTGTSSDVGYYNLVSWYQQHPGKAPKLMIYEGNKRPSGVSNRFSGSKSGNTASLTISGLQAEDEADYYCCSYAGGSVVFGGGTKLTVL | 32.9 | 32.9 | – | – | Kd [3]: 2040 nM |
| 1-51 (antibody, V domains shown) VH: EVQLLESGGGLVQPGGSLRLSCAASGFTFSSYAMSWVRQAPGKGLEWVSVISGSGGSTYYADSVKGRFTISRDNSKNTLYLQMNSLRAEDTAVYYCAREGYRDYLWYFDLWGQGTLVTVSS VL: QSALTQPASVSGSPGQSITISCTGTSSDVGSYDLVSWYQQHPGKAPKLMIYEGNKRPSGVSNRFSGSKSGNTASLTISGLQAEDEADYYCCSYAGSSVVFGGGTKLTVL | 7.1 | 7.1 | – | 98.2 | – |
| 1-22 (antibody, V domains shown) VH: EVQLLESGGGLVQPGGSLRLSCAASGFTFSSYAMNWVRQAPGKGLEWVSIISGSGGSTYYADSVKGRFTISRDNSKNTLYLQMNSLRAEDTAVYYCAREGYRDYLWYFDLWGQGTLVTVSS VL: QSALTQPASVSGSPGQSITISCTGTSTDVGSYNLVSWYQQHPGKAPKLMIYEGSQRPSGVSNRFSGSKSGNTASLTISGLQAEDEADYYCCSYAGSSTVFGGGTKLTVL | 40.6 | 40.6 | 73.2 | 6.55 | – |
| 1-52 (antibody, V domains shown) VH: EVQLLESGGGLVQPGGSLRLSCAASGFTFSNYAMSWVRQAPGKGLEWVSAISGSAGSTYYADSVKGRFTISRDNSKNTLYLQMNSLRAEDTAVYYCARVRQGLRRTWYYFDYWGQGTLVTVSS VL: QSALTQPASVSGSPGQSITISCTGTSSDVGSSNLVSWYQQHPGKAPKLMIYEGSKRPSGVSNRFSGSKSGNTASLTISGLQAEDEADYYCCSYAGSLYVFGGGTKLTVL | 3.5 | 3.5 | 740 | – | – |
| 1-8 (antibody, V domains shown) VH: EVQLLESGGGLVQPGGSLRLSCAASGFTFSSYDMSWVRQAPGKGLEWVSVISGSGGSTYYADSVKGRFTISRDNSKNTLYLQMNSLRAEDTAVYYCAKGPLVGWYFDLWGQGTLVTVSS VL: QSALTQPASVSGSPGQSITISCTGTSNDVGSYNLVSWYQQHPGKAPKLMIYEGSKRPSGVSNRFSGSKSGNTASLTISGLQAEDEADYYCCSYAGSRYVVFGGGTKLTVL | 19.3 | 19.3 | 97.3 | – | – |
